Assays:
[1] = molecular target: T1, A beta oligomer prepared from synthetic A beta1-40 (HCl form), 0.1 mg/ml in PBS, incubated at 37 degrees C … (UniProt P05067 672-711); assay: dot blot: peptide spotted on nitrocellulose (0.1 micro g/dot), hybridoma culture supernatant, HRP anti-mouse IgG, ECL
T1 construct: domain: A beta1-40; non-fibrous assembly of A beta1-40; also called A beta1-40 oligomer; A beta40 oligomer
Experimental: (§1) Dot blot analysis was carried out for hybridomas that gave positive result for primary screening. […] The membrane was blocked with Tris Buffer containing 5% low-fat milk and 0.05% Tween-20, and reacted with hybridoma culture supernatants and detected with chemiluminescence kit (ECL) after reacting with HRP-conjugated anti-mouse IgG antibody.

[2] = molecular target: T2, A beta monomer prepared from synthetic A beta1-40 (TFA form), 0.1 mg/ml in PBS (UniProt P05067 672-711); assay: as above
T2 construct: domain: A beta1-40; also called A beta1-40 monomer; A beta40 monomer
Experimental: as §1

[3] = molecular target: T3, synthesized A beta1-42 (UniProt P05067 672-713); assay: as above
T3 construct: domain: A beta1-42; spotted in the dot blot as the second of the two types of oligomers; also called A beta42 oligomer
Experimental: as §1

[4] = molecular target: T2, A beta monomer prepared from synthetic …; assay: competitive ELISA: antibody pre-incubated with soluble A beta1-40 monomer (inhibitor, varied), then binding to immobilised A beta1-40 oligomer read as OD450
[5] = molecular target: T1, A beta oligomer prepared from synthetic …; assay: competitive ELISA: antibody pre-incubated with soluble A beta1-40 oligomer (inhibitor, varied), then binding to immobilised A beta1-40 oligomer read as OD450
[6] = molecular target: T2, A beta monomer prepared from synthetic …; assay: competitive ELISA: antibody pre-incubated with soluble A beta1-40 monomer (inhibitor, varied), then binding to immobilised A beta1-40 oligomer read as OD450; remark: listed apart in the source
[7] = molecular target: T1, A beta oligomer prepared from synthetic …; assay: competitive ELISA: antibody pre-incubated with soluble A beta1-40 oligomer (inhibitor, varied), then binding to immobilised A beta1-40 oligomer read as OD450; remark: listed apart in the source
[8] = molecular target: T3, synthesized A beta1-42; assay: dot blot, synthesized A beta1-42 spotted, hybridoma supernatant
Experimental: as §1

Binder	binding result [3]	binding result [6]	binding result [7]	other results
AL-221 antibody (antibody, IgG2b, V domains shown) VH: QVTLKESGPGILKPSQTLSLTCSFSGFSLSTSGMGVGWIRQPSGKGLEWLAHIWWDDDKYYNPSLKSQLTISKDTSRNQVFLKITSVDTADTATYYCARRSLSRDYFDYWGQGTTLTVSS VL: DVLMTQTPLSLPVSLGDQASISCRSSQSIVHSNGNTYLEWYLQKPGQSPKLLIYKVSNRFSGVPDRFSGSGSGTDFTLKISRVEAEDLGVYYCFQGSHVPLTFGAGTKLELK	binds			binding result [1]: binds; binding result [2]: binds
AL-231 antibody (antibody, IgG2a, V domains shown) VH: QVTLKESGPGILKPSQTLSLTCSFSGFSLSTSGMGVGWIRQPSGKGLEWLAHIWWDDDKYYNPSLKSQLTISKDTSRNQVFLKITSVDTADTATYYCARRALNWDVFDYWGQGTTLTVSS VL: DVLMTQTPLSLPVSLGDQASISCRSSQSIVHSNGNTYLEWYLQKPGQSPKLLIYKVSNRFSGVPDRFSGSGSGTDFTLKISRVEAEDLGVYYCFQGSHVPLTFGAGTKLELK	binds			binding result [4]: binds; binding result [5]: binds
AL-222 antibody (antibody, IgG2b, V domains shown) VH: QVTLKESGPGILKPSQTLSLTCSFSGFSLSTAGMGVGWIRQPSGKGLEWLAHIWWDDDKYYNPSLKSQLTISKDTSRNQVFLKITSVDTADTATYYCARRGLYYGNYDAMDYWGQGTSVTVSS VL: DVLMTQTPLSLPVSLGDQASISCRSSQSIVHSNGNTYLEWYLQKPGQSPKLLIYKVSTRFSGVPDRFSGSGSGTDFTLKISRVEAEDLGVYYCFQGSRVPLTFGAGTKLELK	binds	binds	binds	
AL-223 antibody (antibody, IgG2a, V domains shown) VH: QVTLKESGPGILKPSQTLSLTCSFSGFSLSTSGMGVGWIRQPSGKGLEWLAHIWWDDDKYYNPSLKSQLTISKDTSRNQVFLKITSVDTADTATYYCARRALITTRDYFDYWGQGTTLTVSS VL: DVLMTQTPLSLPVSLGDQASISCRSSQSIVHSNGNTYLEWYLQKPGQSPKLLIYKVSNRFSGVPDRFSGSGSGTDFTLKISRVEAEDLGVYYCFQGSHVPLTFGAGTKLELK	binds	binds	binds	
AL-233 antibody (antibody, IgG2b, V domains shown) VH: DVQLQESGPDLVKPSQSLSLTCTVTGYSITSGYSWHWIRQFPGNKLEWMGYIHYSGSTNYNPSLKSRISITRDTSKNQFFLQLNSVTTEDTATYYCARRGYDGYYSWFAYWGQGTLVTVSA VL: SQAVVTQESALTTSPGETVTLTCRSSTGAVTTSNYANWVQEKPDHLFTGLIGGTNNRAPGVPARFSGSLIGDKAALTITGAQTEDEAIYFCALWYSNHWVFGGGTKLTVLG	binds			binding result [4]: binds; binding result [5]: binds
AL-209 antibody (antibody, IgG2a, V domains shown) VH: not shown VL: DIQMTQSPSSLSASLGGKVTITCKASQDINKYIAWYQHKPGKGPRLLIHYTSTLQPGIPSRFSGSGSGRDYSFSISNLEPEDIATYYCLQYDNLYTFGGGTKLEIK	binds	binds	binds	
AL-205 antibody (antibody, IgG2a, V domains shown) VH: EVKLEESGGGLVQPGGSMKLSCVASGFTFSNYWMNWVRQSPEKGLEWVAEIRLKSNNYATHYAESVKGRFTISRDDSKSSVYLQMNNLRAEDTGIYYCTRGTRVWLRREAWFAYWGQGTLVTVSA VL: not shown				binding result [8]: binds
AL-204 antibody (antibody, V domains shown) VH: EVQLVESGGGLVKPGGSLKLSCAASGFTFSDYYMYWVRQTPEKRLEWVATISDGGSYTYYPDSVKGRFTISRDNAKNNLYLQMSSLKSEDTAMYYCARAKYYRYDGGGAYAMDYWGQGTSVTVSS VL: NIMMTQSPSSLAVSAGEKVTMSCKSSQSVLYSSNQKNYLAWYQQKPGQSPKLLIYWASTRESGVPDRFTGSGSGTDFTLTISSVQAEDLAVYYCHQYLSSYTFGGGTKLEIK				binding result [8]: binds

Source: patent US20120082667A1 (IMMUNAS PHARMA, published 2012)
